Measured values reported in paper PMC3822002 (Chembiochem : a European journal of chemical biology, 2013).

Key:
tumor growth = details: ref [31]–[32]; cited from earlier work
NAE = target: T1, NAE (Homo sapiens, UniProt Q13564+Q8TBC4); details: covalent adduct with the C-terminus of Nedd8; ref [16], [30]; cited from earlier work
T1 sequence (Q8TBC4 1-463): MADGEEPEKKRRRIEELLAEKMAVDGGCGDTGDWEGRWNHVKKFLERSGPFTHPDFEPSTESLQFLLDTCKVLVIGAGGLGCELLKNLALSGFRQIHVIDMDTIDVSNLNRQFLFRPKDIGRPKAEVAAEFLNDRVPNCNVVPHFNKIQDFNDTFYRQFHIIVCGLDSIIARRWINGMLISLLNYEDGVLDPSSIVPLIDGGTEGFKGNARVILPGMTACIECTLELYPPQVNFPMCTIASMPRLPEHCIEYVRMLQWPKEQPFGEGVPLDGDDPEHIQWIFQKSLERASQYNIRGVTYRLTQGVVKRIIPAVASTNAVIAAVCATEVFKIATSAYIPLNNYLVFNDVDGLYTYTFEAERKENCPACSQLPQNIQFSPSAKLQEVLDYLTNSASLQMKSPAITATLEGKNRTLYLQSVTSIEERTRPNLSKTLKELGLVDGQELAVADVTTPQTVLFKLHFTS
T1 sequence (Q13564 1-534): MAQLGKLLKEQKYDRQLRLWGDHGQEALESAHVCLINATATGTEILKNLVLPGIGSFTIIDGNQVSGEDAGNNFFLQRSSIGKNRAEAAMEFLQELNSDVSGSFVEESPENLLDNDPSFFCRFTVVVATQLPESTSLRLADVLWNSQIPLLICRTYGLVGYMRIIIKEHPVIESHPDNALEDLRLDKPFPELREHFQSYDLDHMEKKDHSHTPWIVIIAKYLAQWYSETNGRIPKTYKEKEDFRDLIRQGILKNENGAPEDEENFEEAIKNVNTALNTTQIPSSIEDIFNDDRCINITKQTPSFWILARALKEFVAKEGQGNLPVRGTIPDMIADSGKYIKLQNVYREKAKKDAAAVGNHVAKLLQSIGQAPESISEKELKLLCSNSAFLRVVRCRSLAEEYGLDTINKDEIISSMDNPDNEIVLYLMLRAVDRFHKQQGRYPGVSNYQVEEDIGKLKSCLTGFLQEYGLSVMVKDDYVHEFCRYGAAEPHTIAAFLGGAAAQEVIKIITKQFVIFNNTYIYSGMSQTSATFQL

CRL substrates = details: ref [31]–[32]; cited from earlier work
[1] = target: Nedd8 activating enzyme (NAE), heterodimer of APPBP1 and Uba3 (UniProt Q13564)

| Compound | effect on tumor growth (tumor growth) | NAE inhibition (NAE) | effect on ubiquitination and degradation of CRL substrates (CRL substrates) | K1/2 of the ATP-PPi exchange reaction catalysed by NAE, saturating ATP [1] |
| --- | --- | --- | --- | --- |
| NS(=O)(=O)OC[C@@H]1C[C@@H](n2ccc3c(N[C@H]4CCc5ccccc54)ncnc32)C[C@@H]1O [MLN4924] | inhibit tumor growth | potent inhibitor of NAE | block ubiquitination and degradation of CRL substrates | – |
| Nedd8 variant ND1 (71LQWFGG76), N-terminal GST fusion (from UniProt Q15843 1-76) | – | – | – | 150 µM |
| Nedd8 variant ND4 (71RLWFGG76), N-terminal GST fusion (from UniProt Q15843 1-76) | – | – | – | 4.5 µM |
| Nedd8 variant ND20 (71ILTFGG76), N-terminal GST fusion (from UniProt Q15843 1-76) | – | – | – | 0.45 µM |
| wt Nedd8 (71LALRGG76), N-terminal GST fusion (from UniProt Q15843 1-76) (natural protein) | – | – | – | 1.3 µM |
